Molecular target: T1, AtFtsZ2 (Arabidopsis thaliana FtsZ2-1, full-length mature protein lacking its transit peptide) (Arabidopsis thaliana, UniProt O82533 49-478)
T1 construct: Purified AtFtsZ2 runs as a doublet on SDS-PAGE; also called AtFtsZ2-1; source: E. coli DE3 Rosetta cells overexpressing the E. coli ftsQAZ operon, purified (Ni-NTA); not shown: His6, C-terminal, kept
T1 sequence (looked up): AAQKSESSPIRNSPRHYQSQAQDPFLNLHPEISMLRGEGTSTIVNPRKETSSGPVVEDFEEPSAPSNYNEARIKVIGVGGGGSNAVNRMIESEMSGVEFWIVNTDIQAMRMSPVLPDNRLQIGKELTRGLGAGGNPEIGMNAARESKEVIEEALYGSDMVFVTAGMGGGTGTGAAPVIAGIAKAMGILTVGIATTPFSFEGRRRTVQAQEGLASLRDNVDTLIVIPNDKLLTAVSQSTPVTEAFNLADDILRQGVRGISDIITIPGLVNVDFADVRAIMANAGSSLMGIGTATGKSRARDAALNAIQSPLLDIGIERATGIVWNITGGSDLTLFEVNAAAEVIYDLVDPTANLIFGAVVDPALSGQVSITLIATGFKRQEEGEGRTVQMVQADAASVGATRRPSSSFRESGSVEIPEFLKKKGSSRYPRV
Assay: 90° light scattering; 5 μM AtFtsZ2 (or AtFtsZ2core) mixed with AtFtsZ1, AtFtsZ1 D275A (or AtFtsZ1core) at various ratios before start, HMK buffer, room temperature, started by 10 μM or 500 μM GTP
Conditions: both partners purified

binding result: binds
B1: AtFtsZ1 (Arabidopsis thaliana FtsZ1-1, full-length mature protein lacking its transit peptide) (natural protein, UniProt Q42545 58-433, looked up)
chain: RSKSMRLRCSFSPMESARIKVIGVGGGGNNAVNRMISSGLQSVDFYAINTDSQALLQSSAENPLQIGELLTRGLGTGGNPLLGEQAAEESKDAIANALKGSDLVFITAGMGGGTGSGAAPVVAQISKDAGYLTVGVVTYPFSFEGRKRSLQALEAIEKLQKNVDTLIVIPNDRLLDIADEQTPLQDAFLLADDVLRQGVQGISDIITIPGLVNVDFADVKAVMKDSGTAMLGVGVSSSKNRAEEAAEQATLAPLIGSSIQSATGVVYNITGGKDITLQEVNRVSQVVTSLADPSANIIFGAVVDDRYTGEIHVTIIATGFSQSFQKTLLTDPRAAKLLDKMGSSGQQENKGMSLPHQKQSPSTISTKSSSPRRLFF
notes: also called AtFtsZ1-1; source: E. coli DE3 Rosetta cells overexpressing the E. coli ftsQAZ operon, purified (Ni-NTA); not shown: His6, C-terminal, kept

From paper PMC8142252, “The Arabidopsis thaliana chloroplast division protein FtsZ1 counterbalances FtsZ2 filament stability in vitro” (The Journal of Biological Chemistry, 2021)
